The DeepSol protein solubility set

assay: soluble on expression in E. coli; label from the status in PepcDB or PDB records

Sequence	soluble on expression in E. coli
MKNSKAILQVPGTMKIISAEIPVPKEDEVLIKVEYVGICGSDVHGFESGPFIPPKDPNQEIGLGHECAGTVVAVGSRVRKFKPGDRVNIEPGVPCGHCRYCLEGKYNICPDVDFMATQPNYRGALTHYLCHPESFTYKLPDNMDTMEGALVEPAAVGMHAAMLADVKPGKKIIILGAGCIGLMTLQACKCLGATEIAVVDVLEKRLAMAEQLGATVVINGAKEDTIARCQQFTEDMGADIVFETAGSAVTVKQAPYLVMRGGKIMIVGTVPGDSAINFLKINREVTIQTVFRYANRYPVTIEAISSGRFDVKSMVTHIYDYRDVQQAFEESVNNKRDIIKGVIKISD	soluble
KPYTIDKANSSVWFEVKHFKFNETRGVFDSFDGKIDADPNTKALNVFEGKIDIKSINTRNKKRDDHLKTAEFFDVVKYPKGSFKMTKYEDGKIHGDLTLHGVTKPVVLEAKIQAPLQNPMNKKEFMVLQAEGKINRKDFGIGKTFSDAVVGDEVKIELKLEAYA	soluble
SLHRLNKKAGDYGEKAAEIYLKKSGYTILNRNFRCFLGEVDIIAKNKDYITFVEVKSRWSDTYGLPCEAVNYRKKLKIYRTAKYYIASKSLINYNFRFDVIEVILNHQNDSYDLKFIENAFQI	soluble
MSLHIIILSPVMPIWDRGVFCSSFTKLCLARGFHITLLDTLSLFPSHSAFCNNSTVEILPFITEKLKKYFKEPSVLVGFSMAGMLVQILAARLPNVQAVLAVNAPGYPDKPLKRQIGCILTFLKNKDLSGALEILNSFMCPRGGREKRVLWEIPDEQKSVAIERMTRGFTFLLGGDARDEIIKYTGKFLALIGEKSQLATLANQTKSQCLNHEYQVISGAGTRLWDDNPAMTNAIVHKWIDAL	not soluble
FLLPPSTACCTQLYRKPLSDKLLRKVIQVELQEADGDCHLQAFVLHLAQRSICIHPQNPSLSQWFEHQERKLHGTLPKLNFGMLRKMG	soluble
MHRYLWQQADGKRHVYDTTRHRIQAEHSFTALCGETVIPRTERGDLTAGLWFDGECPVCTIALAKALGWPMRELADLAHRFTWSPELLARLAEILHCTSGEVAELTGARTVDT	not soluble
MGSDKIHHHHHHMHTDVNQLFAALWDDYVEMTPSAAKVHQLLAKGETIINDHIALRTFNIAKVNLSVLAKHFESLGYVACGDYDFEAKKLKAKHFEHPDPTQPKVFISELMVEAFSPELQAIVHGLVEQVDEAATTADNFLYSGRHWELDYATYEQLLAESEYAAWVAAFGYRANHFTVSINHLPGYNTILEVNETLKQGDFVLNSVGGEVKGSADVLLEQSSTMADKVNVAFKDVQKTIPSCFYEFALRYPKADGELYTGFVAASADKIFESTNNAG	not soluble
PDPNRFDRDRLFNAVSRGVPEDLAGLPEYLSKTSKYLTDSEYTEGSTGKTCLMKAVLNLKDGVNACILPLLQIDRDSGNPQPLVNAQCTDDYYRGHSALHIAIEKRSLQCVKLLVENGANVHARACGRFFQKGQGTCFYFGELPLSLAACTKQWDVVSYLLENPHQPASLQATDSQGNTVLHALVMISDNSAENIALVTSMYDGLLQAGARLCPTVQLEDIRNLQDLTPLKLAAKEGKIEIFRHILQREFS	soluble
MVKSFRMKALIAGAAVAAAVSAGAVSDVPAAKVLQPTAAYAAETVFSQNNGASGFLPGRYDVQAMAPAMFNWSRESRFAGNTDGTLKWQNDIRTTPQNGAGAVIDGDGTVYLHSRDGEMKAFNPDGSVKWVTGNLGKTYTQSPVLGTNGVIYLASYDKKIYFIDKETGEILTTVPLSGGPSSETVIGSDGTLYFSTLDNYVHAIKPTSKSTWTERWKLKTNGVVSSVPVLAKNGTVYVGTYNYVFYAINSGTGQVKWSRTTSNAFKGYPVIDKDGNIYAGNQDGQLYAYTSTGSLKWTFPLNGFSSSSPAIDHNGNIYIGSGSGELFSISKNGDMNWSFYTDGPVRTAPLIDAKGTVYFGSDDMKVYAADANGNELWSYQTDSNVVSSPQLAEDGTLYIGSYTKLMAFGKLEHHHHHH	soluble
MNGMCWIASYPKAGGHWLRCMLTSYVTGEPVETWPGIQAGVPHLEGLLRDGEAPSADPDEQVLLATHFTADRPVLRFYRESTAKVVCLIRNPRDAMLSLMRMKGIPPEDVEACRKIAETFIADEGFSSVRIWAGEGSWPENIRSWTDSVHESFPNAAVLAVRYEDLRKDPEGELWKVVDFLELGGRDGVADAVANCTLERMREMEERSKLLGLETTGLMTRGGKQLPFVGKGGQRKSLKFMGDDIEKAYADLLHGETDFAHYARLYGYAE	soluble
MMRGGMGNMNNMMKQMQKMQKDMAKAQEELGEKTVEGTAGGGMITVIANGHKQILEVKIKEEVVDPEDIEMLQDLVLAATNDALKKADELSNSTMGKFTKGLNLPGGMF	not soluble
MLTNEQLAALRSRLLDMKRETEDRLKQNDHFGMIRSHAHDAVGELASYDNHPADEATELYEREKDLALKEHAERELREIERALGAIADGTYGTCRVCGRPIPYERLEALPTTLYCREHSPDQTVSQKRPLEEGVLMPPFGKFDFDDRAESVAYDAEDAWQEVARYGTSDTPSDLGKNVDSYSEVYAESEENVGYVEDLENFAAVDLHGQHVRVYPTREHELLENILDDEGIMSNIGDLPAYEKDPYTSKDSYRRYDERPSQQHFGETTP	not soluble
MGSDKIHHHHHHMSDQTRQPNSSSGLSQLLTGRLRSKLAAGVTHLTSGSGPTLDYSSPPGDPGLFGPDSVCWKVHADFTSMMTGGISALLLQALHPLALAGVWDHSAFRTDILGRLRRTATFIAGTTYGNRHDALALVERVKRIHLGVSGVAPDGRPYRASEPALLTWVHVAEVSSFMTAHLRYVNPLLPVAAQDQYFAETARIAEMLGASDIPRSRAGIDAYLLAMQPELVASERTRELVRILMNAPAPSASMRPAGVLMLNAGVDLLPDWAQAMLGFQRYAALRRAVTRPGVRLVAPVIRWALVNGVSKRARRRVAAGVREPE	not soluble
MVKETHRFETFTEEPIRLIGEEGEWLGDFPLDLEGEKLRRLYRDMLAARMLDERYTILIRTGKTSFIAPAAGHEAAQVAIAHAIRPGFDWVFPYYRDHGLALALGIPLKELLGQMLATKADPNKGRQMPEHPGSKALNFFTVASPIASHVPPAAGAAISMKLLRTGQVAVCTFGDGATSEGDWYAGINFAAVQGAPAVFIAENNFYAISVDYRHQTHSPTIADKAHAFGIPGYLVDGMDVLASYYVVKEAVERARRGEGPSLVELRVYRYGPHSSADDDSRYRPKEEVAFWRKKDPIPRFRRFLEARGLWNEEWEEDVREEIRAELERGLKEAEEAGPVPPEWMFEDVFAEKPWHLLRQEALLKEEL	soluble
MAHHHHHHMTSVIQRLRRIEVEGLENLRNLGGYHTNNSTKTTRWGVVYRSDQLFRVPADVAQMVLVDQLHIRHVYDLRANTEVSAKRYSLPHMQYTSLPIEMSNANRFLKEGENLKQVATAHRFMQEIYREFVRSYAPTMGLIIKGIIDSKASCDNAFLIHCTAGKDRTGWCCYVLLTLLDVMEEEKRSDYLLTNTFVGIPADAWDYDGAEGMGEEAMTALWTVFDEYLDAALDELNKMGGIYKYAKSHMGLTDEDIDELRELMLE	soluble
MTTTLKAIVRKPRTDGLYAVYIRIVHNRKPGYIKTNKIVDADHISKDNEPTDPVVNEYCSMLVRQYTDRLNRANTTLWSVSEIIEYLLKTDEEVCFSDYSRMFIRQMRLDGHERNAKNYQLAVAHLERYMGTTRVMFGHLTAAVLKKWIESLSKTHRAKEMYPTNVRMIFRSAIADMNDDEKGIQRIKFDPWVKVQIPKSEPSEKLAISAEECREFFNRPLPRTKMLSSLPELGRDVALLSLCLGGINTVDLYNLKKSDYHDGIIGYKRAKTKHSRKDEAYIEMRVEPFIQDTFNKYLSEEEDEFLFTFHQRYGNTDSFNANVNIGIRKICMDMGMTNKEDFYCFYTFRHTWATIAQNDCNANLYEVAFGMNHSHGFKVTRGYVKVDFTPAWALNARIIDFIFFSNKPSKQGLAKDLDESGDKMFRISAKMMIYARAYFKGEVIAEFTDIGFNNVDEVLSRIVKMFPKDIPVGCTVQIRLTNCDNHKEVVYERSKGKGF	not soluble
MIGGSLDAFIGSVHRMAAALDGTIELVCGAFSSNAARSIQTGEALHLPKERIYASYEEMIVQEAQLPADVRMQFVSIVTPNHLHAQPALLALKHGFHVLCEKPLAFSVAEAEQLGIQVKETGLLFGLTHTYTAYPMVKEARDLIAKGKLGTIRKIIVEYPQGWLSAPIESDGQKQAGWRTDPAQAGLSCCVGDIGTHAENIAEYITGLKITELSADVSSVVAGRKLDDDANILLRFDNGAKGVLIASQIANGEENELKIRVYGEHAGLEWLQSEPNTLIVKQNDQPTQLRRAGANHSYLSEHARLHCRIPAGHPEGYIEAMANIYRNFSKAVHSFEDQITHNPLLDYPTIEDGIRGMKFIETVIISGKENATWKQLLEHHHHHH	soluble
MQYGAIVVTFNRKQLLIESITALLNQTVPPAKIIIIDNHSTDGTKAELQTADILANPSVDYRYLTKNIGGAGGFARGMQIAAADPNLDWASMSDDDAIFEPDYFEKLIAYQQDHPNRQILTGSVYIEDGRLQADQRNRFTNWSTFQAQAVPEREYRGNFEFDQYTFCGVFMSVAVIKQVGVADAGYFIWWDDCEYAVRTAKLSRPVNVSAAKLIHKTALPSLDFKSKFVPDWRLYYGQRNRLITIKRWRANSLVSLGWLLGFYARLAIQLCGPFYRGYRKMVIRVYLEALRDASREREGLNPNFMPGQKFLEHHHHHH	soluble
MGGLQQRCLWEVVTPRLSGAASLNGEQRADVCVIGAGFTGLSAALHLLEAGRSVCVLEAYEVGHGGSGRNVGLINAGTWIPPDEVVATLGAEQGEKLNAVLGRAPALVMETIERLGIDCQLRREGTLHMSHNASGVADLQRRHAQWTRRGAPLELLTGAACHEACGTRRISAALLDRRAGTLNPMAYSRGLATAVVQRGGQLYQRSPVLALERQGALWAVRSSAGAVLAEQVVIASNAYTEGEWTNLRRHFFPGYYYQVASAPLHGAAAERILPHGQGSWDTRTVLSSIRRDAQGRLLLGSLGNGANKPAWFLRQWADRIQSHYFPDLGQVNWEYSWTGCIAFTPDHLMRLFEPAEGLLAVTGYNGRGVTTGTVVGKAFADYLLSGERATLPLPFSDMKPVPAARLRSCAYEMGFSLYHAGQCLRVVLLEHHHHHH	soluble
MAHHHHHHMGLKRLAKAAKITSKHMLLLNRREPYKPVTSDRVMIENRRRLEDFEAKNAEGIVFVPDTALPPWQKSIATNLKQQATQMNFRGFRVRVADKQDEPGFPTHFR	soluble
MGSDKIHHHHHHMEKQEIIEKLVELKDRLIEDVYQAYSRNTSDYGHERYNAWKKSVTKFLNQYIPNEVQRFNEKANPTYGVFLRRNGMSYHDFFWKTDGSAMNAYLESLILDIQNDDYDFTPINKEVQDVKTIPEAKSKKVLIVHGHDEAAKYRTEAFLRKHGFDPIILHLNASKGDTIIKKLERLAEGVGYGIVLYTPDDMGETKVKAVQHELQPRARQNVVFEHGYLMGLIGRPNVAAIVEGYVEKPSDIDGVVYIPSSNWEIDLLRELHEAGYPINPANL	not soluble
SNAMVQAQTRDQIVAAADELFYRQGFAQTSFVDISAAVGISRGNFYYHFKTKDEILAEVIRLRLARTAQMLADWQGTGDSPRARIASFIDLMIMNRAKITRYGCPVGSLCTELSKLDHAAQGQANGLFTLFRDWLQRQFAEAGCTTEAPALAMHLLARSQGAATLAQSFHDEGFLRSEVADMHRWLDNTLPMTT	soluble
LYRHFAHRPDDLYRLEWREYETLLARIFQSQGFDVELGPGRGDEGVDIRLIQRDPIGDIVTLVQAKKYGAGNKIDQTQVAALYGIQQSEDANFSMFVTTSAYAPVAKRFSAREKV	not soluble
